This assay has as its target soluble HLA-B*0702 (human).

With SPGALVVGVI (modifications not checked) [Ipep 1838], the % competition is 30%.

Values taken from patent publication US7378234.
